# Entries after “also recorded” stand apart in the source; their conditions may differ.
# Key:
# [1] = Chromogenic reaction of degrading herbicides in bacteria: 2,4-D; format: cell-based, Escherichia coli; details: recombinant E. coli expressing the gene, 2,4-D added to the medium, red = phenols
# Procedure, shortened: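 E. coli BL21(DE3) carrying AAD12 or empty pET15b was induced with 0.1 mM IPTG plus 2 mM α-ketoglutarate and given 0.5 mM 2,4-D, then grown overnight at 28 °C. Supernatant was treated with pH 10 borate, potassium ferricyanide and 4-aminoantipyrine for 5 min at room temperature; red colour read at A510.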
# [2] = format: cell-based, Escherichia coli
# Experimental: (§1) To transform the plasmids to be tested, an AAD12-expressing plasmid and a blank control plasmid pET15b were respectively transformed into the protein expression E. coli BL21(DE3) strains. A monoclone was selected and inoculated in a 10 ml centrifuge tube with 3 ml LB medium, and cultivated at 37° C., 200 rpm for 6-8 hours. […] The temperature was switched to 28° C. and the cultivation continued overnight. In the next morning, 200 μL of each bacteria solution was taken and centrifuged to precipitate thallus, 180 μL of the supernatant was taken and added in a 96-well plate, and 20 μL of borate buffer of pH 10 was added. Then the mixture was added with 2 μL of 8% potassium ferricyanide and mixed well, followed by adding 2 μL of 2% 4-aminoantipyrine, and placed at room temperature for 5 min to observe the color and detect the A510 value. […]
# [3] = Chromogenic reaction of degrading herbicides in bacteria: triclopyr; format: cell-based, Escherichia coli; details: recombinant E. coli expressing the gene
# Experimental: as §1
# Arabidopsis thaliana [4] = assay: Herbicide resistance of transgenic Arabidopsis thaliana seedlings on plate medium (root growth); format: in vivo; details: Arabidopsis overexpressing the gene
# Procedure, shortened: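 T2 lines overexpressed AAD from the AtUbi10 promoter with the MAS terminator, with hygromycin selection; two events per construct were tested on plates against 2,4-D, 2,4-DB sodium and MCPA. The screening medium was MS plus 0.3 μM 2,4-D. Seeds were stratified 3 days at 4 °C, grown at 22 °C on 16 h light, and root elongation was compared with wild type after one week.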
# Arabidopsis thaliana [5] = assay: as above; format: in vivo; details: plate medium with 2,4-D (0.3 μmol)
Molecule,"Chromogenic reaction of degrading herbicides in bacteria: 2,4-D [1]","Chromogenic reaction of degrading herbicides in bacteria: 2,4-D ([1]; listed as D30)",Chromogenic reaction of degrading herbicides in bacteria: MCPA [2],Chromogenic reaction of degrading herbicides in bacteria: Triclopyr [3],Chromogenic reaction of degrading herbicides in bacteria: Triclopyr ([3]; listed as D30),"Resistance of transgenic Arabidopsis thaliana: 2,4-D (Arabidopsis thaliana [4])","Chromogenic reaction of degrading herbicides in bacteria: 2,4-D ([1]; listed as D51)",Resistance of transgenic Arabidopsis thaliana: MCPA (Arabidopsis thaliana [4]),"2,4-D resistance of T1 generation transgenic seedlings (seminal root growth) (Arabidopsis thaliana [5])","Chromogenic reaction of degrading herbicides in bacteria: 2,4-D ([1]; listed as D52)","Chromogenic reaction of degrading herbicides in bacteria: 2,4-D ([1]; listed as D53)","Chromogenic reaction of degrading herbicides in bacteria: 2,4-D ([1]; listed as D55)","Chromogenic reaction of degrading herbicides in bacteria: 2,4-D ([1]; listed as D56)","Chromogenic reaction of degrading herbicides in bacteria: 2,4-D ([1]; listed as D57)","Chromogenic reaction of degrading herbicides in bacteria: 2,4-D ([1]; listed as D44)"
"QYD30: AAD-like enzyme, SEQ ID NO. 59 (protein, Synthetic polypeptide, QYD30, D30) MALSLTPLTPGFVAEASGLDLTRPLDAAAVRTIEQAMDDYAVLVFRNQPLDQDQQIRFAQGFGPLDLGLRKVKGGAHRFDHAELADISNVTVDGSVAGRDHAKIVGNIANQLWHSDSSFQRPRAKYSMLSAVVVPQDGGQTEFADLRAAYDHLPDGMKAAIGDLQAVHYALHSRFLLGDTEYTQAQRDALPAVRWPLVQTDPRSGRKILFVGIHACEVVGMTVAEGRMLLLDLLEHATQREFVYRHHWRVGDLVMWDNTATLHRGRRFDLAQRRELRRATTEEVRLSAEARAAA",Yes,"could degrade 2,4-D; also recorded: capable of degrading 2,4-D",Yes,Yes,slight degradation,Yes,–,–,–,–,–,–,–,–,–
"QYD51: AAD-like enzyme, SEQ ID NO. 101 (protein, Synthetic polypeptide, QYD51, D51) MARTLDIEPIDATFGAVVRGIKVAEVDDETFRALYDAWLEYALLIFPDQHLKRDQQIAFAKRFGPLEFEMTAISNVRSDGTLRLEKDNDDVMKVLKGNMGWHHDSTYMPVQAKGAVFSAEEVPTIGGRTGFADMRAAYDALDPAMKARIEGLNAYHSLHYSQGRVGHQTKKSDGEYSGYGLHDGPVPLRPLVKTHPETGRKSLLAGRHAHNIPGLAQEESDRLLRELIDFACQPPRIYHHDWTPGEAVVWDNRCLMHQATPWDMTQRRIMWHSRIAGDPASESARPQP",Yes,–,Yes,–,–,Yes,"could degrade 2,4-D; also recorded: capable of degrading 2,4-D",Yes,"showing tolerance to 2,4-D",–,–,–,–,–,–
"QYD52: AAD-like enzyme, SEQ ID NO. 103 (protein, Synthetic polypeptide, QYD52, D52) MTRTLDIEPIDATFGAVVRGIKVAEVDDETFRALYDAWLQYALLIFPDQHLQRDQQIAFAKRFGPLEFEMTAISNVRSDGTLRLEKDNDDVMKILKGNMGWHHDSTYMPVQAKGAVFSAEEVPTIGGRTGFADMRAAYDALDPAMKARIEGLNAYHSLHYSQGKVGHQTRKADGEYSGYGLHDGPVPLRPLVKTHPETGRKSLLAGRHAHNIPGLSQEASDSLLRELIDFACQPPRIYHHDWTPGDAVVWDNRCLMHQATPWDMTQRRIMWHSRIAGDPASESSLAA",Yes,–,Yes,–,–,Yes,–,–,"showing tolerance to 2,4-D","could degrade 2,4-D; also recorded: capable of degrading 2,4-D",–,–,–,–,–
"QYD53: AAD-like enzyme, SEQ ID NO. 105 (protein, Synthetic polypeptide, QYD53, D53) MASTLSLQPLEGITFGAVATGFRIAELDEPTWQALHDAWLDHALLIFPGQFLTRDEQIAFARRFGPLEFEMAAISNVKPDGTLRLEKDNDDMMKVLKGNMGWHADSTYMPVQAKGAVFSAEVVPTIGGETGWADMRAAYEALDAATREKIDGLSAFHSLHYSQSKLGHQTQKSDGQYNGYGLHDGPVPLRPLVKTHPETGRKSLLIGRHAHNIPGMDKAESERFLDGLIAFACQPPRVYHHHWAPGDVVVWDNRCLLHQATPWDMTQPRVMWHSRIAGDPASEAGLAA",Yes,–,Yes,–,–,Yes,–,Yes,"showing tolerance to 2,4-D",–,"could degrade 2,4-D; also recorded: capable of degrading 2,4-D",–,–,–,–
"QYD55: AAD-like enzyme, SEQ ID NO. 109 (protein, Synthetic polypeptide, QYD55, D55) MARPFDIEPLDATFGAVVRGVKVAALDDVTWRALHDAWLQYALLIFPGQHLSREAQIAFAKRFGPLEFEMAPISNVRADGSVRAEAENDDVIKVLKGNMGWHCDSTYMPVQAKGAVFSAEVVPGAGGQTGWADMRAAYDALDGDLRARIENLSAYHSLYYSQAKLDHRPSKSSAYSGYGFHDGPVPLRPLVKVHPETGRKSLLIGRHAHNIPGMDADESTRLLQSLVDFACRPPRIYHHHWTAGDTVVWDNRCLLHQATPWDMTQPRVMWHSRIAGDPASEAALA",Yes,–,Yes,–,–,Yes,–,–,"showing tolerance to 2,4-D",–,–,"could degrade 2,4-D; also recorded: capable of degrading 2,4-D",–,–,–
"QYD56: AAD-like enzyme, SEQ ID NO. 111 (protein, Synthetic polypeptide, QYD56, D56) MARTFDVQPLDATFGAVISGVKLAALDDETWRELYATWLQYALLVFPGQHLSRDQQIAFARRFGPLEFEIIALSNVKSDGTIRSEVENDDVIKVLKGNMGWHADSTYMPVQAKGAVFTAEVVPSVGGQTGWADMRAAYDALDGATRQKVEQLSAYHSLHYSQSKLGHQHKPGSAYSGYGFHDGPVPLRPLVKTHPETGRKSLLIGRHAHNIPGMDKDESARFLEDLVASACQPPRIYHHTWAAGDAVVWDNRCLLHQATPWDMTQPRVMWHSRIAGDPLSEAALG",–,–,Yes,–,–,Yes,–,–,"showing tolerance to 2,4-D",–,–,–,"could degrade 2,4-D; also recorded: capable of degrading 2,4-D",–,–
"QYD57: AAD-like enzyme, SEQ ID NO. 113 (protein, Synthetic polypeptide, QYD57, D57) MPQHFDVAPVDATFGAVVTNLKLANLDEPAFRELYATWLEHALLIFPGQFLTREQQIAFARRFGALEFEMAAISNVKSDGTLRREADNDDVVKILKGNMGWHADSTYMPLQAKGAVFSAKVVPSARGETGWADMRAAYDALDAAVRDRVERLSAYHSLHYSQAKAGFQHKDKKSEYSGYGLHDGPVPLRPLVKTHPETGRKSLLIGRHAHNIPGMEPEESERLLDGLVEFACQAPRTYHHSWKPGEAVIWDNRCLLHRAMPWDMTEPRIMWHSRIAGDPASEAAIN",Yes,–,Yes,–,–,Yes,–,Yes,"showing tolerance to 2,4-D",–,–,–,–,"could degrade 2,4-D; also recorded: capable of degrading 2,4-D",–
"QYD44: AAD-like enzyme, SEQ ID NO. 87 (protein, Synthetic polypeptide, QYD44, D44) MARAFDIAPLDATFGAVVTGVKLAEVDDAGWCDLHAAWLEHALLVFPDQHLTRAQQIAFARRFGPLEFEMAAISNVRPDGSLRVESDNDDMMKILKGNMGWHADSTYMPVQAKGAVFSAEVVPGSGGQTGFADMRAAYDALDENLKARVETLQARHSLHYSQSKLGHETKTADGEYSGYGLHDGPVPLRPLVKVHPETGRKSLLIGRHAHAIPGMERAESERLLQQLIDFACQPPRVYHHDWAPGDAVLWDNRCLLHQATPWDMTQKRIMWHSRIAGDPASETALAGAGP",Yes,–,Yes,–,–,Yes,–,Yes,"showing tolerance to 2,4-D",–,–,–,–,–,"could degrade 2,4-D; also recorded: capable of degrading 2,4-D"
